In publication PMC12847774, “SERPINB3 enhances NPM1 sumoylation via inhibiting SENP3’s activity and promotes lung tumorigenesis” (Cell Death & Disease, 2025):

Molecular target: T1, SENP3 purified protein (UniProt Q9H4L4 1-574)
T1 construct: SENP3; cloned into pET-28a(+) between BamHI and HindIII; also called wild-type SENP3; pET-28a (+)-SENP3; source: E. coli Rosetta (DE3), purified (Ni-NTA)
Experiment: co-IP; in vitro immunoprecipitation with Flag antibody using purified recombinant proteins
Details: both partners purified

T1 sequence (Q9H4L4 whole entry): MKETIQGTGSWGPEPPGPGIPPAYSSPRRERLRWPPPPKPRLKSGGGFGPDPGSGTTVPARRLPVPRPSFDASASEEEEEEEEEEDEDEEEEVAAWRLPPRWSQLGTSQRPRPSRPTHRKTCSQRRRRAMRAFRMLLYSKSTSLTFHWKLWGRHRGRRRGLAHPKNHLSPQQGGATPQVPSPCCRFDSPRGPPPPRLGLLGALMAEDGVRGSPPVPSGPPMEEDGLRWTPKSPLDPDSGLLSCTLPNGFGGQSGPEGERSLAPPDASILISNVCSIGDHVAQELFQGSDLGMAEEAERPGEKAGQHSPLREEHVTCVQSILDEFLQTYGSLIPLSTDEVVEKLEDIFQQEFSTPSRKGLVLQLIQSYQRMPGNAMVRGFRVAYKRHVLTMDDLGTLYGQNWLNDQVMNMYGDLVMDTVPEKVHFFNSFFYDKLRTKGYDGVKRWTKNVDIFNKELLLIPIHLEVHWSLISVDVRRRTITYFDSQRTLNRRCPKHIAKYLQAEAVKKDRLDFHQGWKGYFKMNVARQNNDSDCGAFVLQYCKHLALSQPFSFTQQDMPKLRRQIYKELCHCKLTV

B1: Flag-SERPINB3 purified protein (natural protein, UniProt P29508 1-390, looked up)
chain: MNSLSEANTKFMFDLFQQFRKSKENNIFYSPISITSALGMVLLGAKDNTAQQIKKVLHFDQVTENTTGKAATYHVDRSGNVHHQFQKLLTEFNKSTDAYELKIANKLFGEKTYLFLQEYLDAIKKFYQTSVESVDFANAPEESRKKINSWVESQTNEKIKNLIPEGNIGSNTTLVLVNAIYFKGQWEKKFNKEDTKEEKFWPNKNTYKSIQMMRQYTSFHFASLEDVQAKVLEIPYKGKDLSMIVLLPNEIDGLQKLEEKLTAEKLMEWTSLQNMRETRVDLHLPRFKVEESYDLKDTLRTMGMVDIFNGDADLSGMTGSRGLVLSGVLHKAFVEVTEEGAEAAAATAVVGFGSSPTSTNEEFHCNHPFLFFIRQNKTNSILFYGRFSSP
notes: SERPINB3; cloned into pET-28a(+) between BamHI and HindIII; the methods name only pET-28a (+)-SERPINB3; also called SCCA1; pET-28a (+)-SERPINB3; source: E. coli BL21(DE3), purified (Ni-NTA)
B1: binds.
